Target: Y925F-FAK (nonphosphorylatable mutant of FAK/YCam) (human, UniProt Q05397 1-1052, Y925F)
Experiment: co-IP

Chain of Y925F-FAK (nonphosphorylatable mutant of FAK/YCam) (Q05397 whole entry Y925F): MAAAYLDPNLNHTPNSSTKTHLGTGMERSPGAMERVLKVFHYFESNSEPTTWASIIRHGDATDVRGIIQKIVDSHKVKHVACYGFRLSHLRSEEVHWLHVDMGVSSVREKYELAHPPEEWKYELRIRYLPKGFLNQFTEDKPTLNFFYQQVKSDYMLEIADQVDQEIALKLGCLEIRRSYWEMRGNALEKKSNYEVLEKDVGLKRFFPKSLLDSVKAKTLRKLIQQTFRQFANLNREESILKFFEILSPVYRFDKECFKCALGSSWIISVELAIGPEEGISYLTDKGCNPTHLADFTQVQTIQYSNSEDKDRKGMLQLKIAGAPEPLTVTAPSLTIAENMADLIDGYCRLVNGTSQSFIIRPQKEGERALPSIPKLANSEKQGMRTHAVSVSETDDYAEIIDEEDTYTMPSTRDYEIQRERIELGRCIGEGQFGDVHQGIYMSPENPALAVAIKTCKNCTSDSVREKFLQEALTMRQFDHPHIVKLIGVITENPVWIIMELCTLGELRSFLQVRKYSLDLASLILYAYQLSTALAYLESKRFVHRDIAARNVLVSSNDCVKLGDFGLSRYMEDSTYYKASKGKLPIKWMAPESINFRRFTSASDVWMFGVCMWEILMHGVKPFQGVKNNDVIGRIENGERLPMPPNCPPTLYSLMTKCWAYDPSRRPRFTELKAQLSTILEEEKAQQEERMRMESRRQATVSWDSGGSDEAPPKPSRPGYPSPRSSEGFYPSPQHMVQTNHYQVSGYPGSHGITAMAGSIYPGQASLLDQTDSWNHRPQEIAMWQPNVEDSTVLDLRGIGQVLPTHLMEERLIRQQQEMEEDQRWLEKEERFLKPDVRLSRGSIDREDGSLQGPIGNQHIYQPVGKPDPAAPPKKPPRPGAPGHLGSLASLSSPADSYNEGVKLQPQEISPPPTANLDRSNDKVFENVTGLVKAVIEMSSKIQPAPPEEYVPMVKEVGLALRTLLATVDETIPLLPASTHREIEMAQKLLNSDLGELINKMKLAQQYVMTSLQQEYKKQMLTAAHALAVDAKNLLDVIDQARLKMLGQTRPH

fold change of co-precipitated paxillin against wild-type FAK or Y925E-FAK: 3 fold
B1: paxillin (natural protein)
chain: not shown

Source: paper PMC3069021 (Molecular Biology of the Cell, 2011)
